“Also recorded” adds a separate entry of the source.
What was measured:
N2a-mLRP4 cells = assay: MTS redox cell viability assay in Aβ42 treated cells; assay type: cell-based, mouse; conditions: 3 µM Aβ42, 72 h; only in mLRP4-expressing cells, not N2a-pcDNA3; p<0.05, n = 3
Description: We hypothesized that Aβ42 treatment might increase cell death in mLRP4-overexpressing N2a cells because we detected increased co-localization of Aβ42 with lysosomes in these cells. We treated N2a-pcDNA3 and N2a-mLRP4 cells with Aβ42 for 24, 48 and 72 h and assessed cell viability by reduction of the MTS redox dye. Aβ42 was prepared identically to the FAM-Aβ42 experiments.
Figure 5 Increased susceptibility to Aβ42-mediated cell death in LRP1 minireceptor-expressing cells. N2a-pcDNA3 and N2a-mLRP4 cells were incubated with increasing concentrations of Aβ42 for 24, 48 and 72 h and cell viability was assessed by the reduction of the MTS dye.
N2a-pcDNA3 and N2a-mLRP4 cells were plated at 16,250 cells/cm^2 in 48-well plates and grown overnight. Serial dilutions of freshly prepared synthetic Aβ42 were prepared by diluting the Aβ42 stock with internalization media. Culture media was then replaced with media containing 0, 1 or 3 µM Aβ42 and cells were incubated for an additional 24, 48 or 72 h. Cell viability was measured by using one-solution cell titer kit at each corresponding time point (Promega, Madison, WI). After 4 h labeling, the soluble reduced formazan product was quantified by directly reading the plate in a Bio-Tek plate reader. After background subtraction from media-only containing wells, results were represented as % of the corresponding control and untreated N2a cells.

LRP1 = conditions: ref [23], [36]; cited from earlier work
N2a-mLRP4-Tless cells = assay: Kinetic analysis of 125I-RAP endocytosis; assay type: cell-based, mouse; conditions: 5 nM 125I-RAP, 4°C 60 min, then 37°C; internalized/total cell-associated ligand; triple determinations
Description: Figure 4 LRP1 endocytosis is required for Aβ42 uptake and accumulation in N2a cells. A, clathrin heavy chain (CHC) knockdown increases cell surface levels of mLRP4. N2a-mLRP4 cells were infected with CHC shRNA lentivirus or pLKO, control lentivirus. The levels of cell surface and total pools of mLRP4 were determined by flow cytometric analyses with anti-HA antibody in non-permeabilized and saponin-treated cells, respectively. The surface-to-total ratio were calculated and plotted as fold-change to control-infected cells. Right panel, decreased CHC levels and normal mLRP4 levels in transduced N2a-mLRP4 cells were verified by Western blot from sister cultures. […] The intracellular level of FAM-Aβ42 was determined by flow cytometric analyses of pronase-treated cells. […] The cell surface and total pools of the LRP1 minireceptor were determined by flow cytometric analyses with anti-HA antibody as in A in N2a-mLRP4 cells and in N2a cells stably transfected with a deletion variant lacking the cytoplasmic tail of mLRP4 (mLRP4-Tless). The surface-to-total ratios were then calculated and plotted as fold-change to N2a-mLRP4 cells. […] At each time point, the amounts of ligand that is either internalized or that remains at the cell surface were determined and the ratios of internalized to total cell-associated ligand were plotted against time. […]

With “Aβ42: Unlabeled synthetic Aβ42 obtained from Bachem” the “cell viability (reduction of MTS dye)” value (N2a-mLRP4 cells) was “slight yet significant decrease; also recorded: Decreased viability”.

In the case of “RAP: LRP1 chaperone of 39-kDa, model extracellular ligand for LRP1; labeled with Alexa-488 for uptake”, the “affinity of RAP binding to LRP1” value (LRP1) is listed as “high affinity”.

B1: ^125I-RAP: iodinated RAP protein used at 5 nM for kinetic analysis of endocytosis (protein, UniProt P30533 35-357, looked up)
Alpha-2-macroglobulin …: YSREKNQPKPSPKRESGEEFRMEKLNQLWEKAQRLHLPPVRLAELHADLKIQERDELAWKKLKLDGLDEDGEKEARLIRNLNVILAKYGLDGKKDARQVTSNSLSGTQEDGLDDPRLEKLWHKAKTSGKFSGEELDKLWREFLHHKEKVHEYNVLLETLSRTEEIHENVISPSDLSDIKGSVLHSRHTELKEKLRSINQGLDRLRRVSHQGYSTEAEFEEPRVIDLWDLAQSANLTDKELEAFREELKHFEAKIEKHNHYQKQLEIAHEKLRHAESVGDGERVSRSREKHALLEGRTKELGYTVKKHLQDLSGRISRARHNEL
modifications: 125I-labeled
notes: iodinated RAP protein used at 5 nM for kinetic analysis of endocytosis
For B1, the “endocytosis rate for 125I-RAP in N2a-mLRP4-Tless vs N2a-mLRP4 cells” value (N2a-mLRP4-Tless cells) was “decreased”.
